Data reported in patent US20190225662A1.

Target: GABABR1a on mouse hippocampal neurons (cultures and slices) (mouse), Q9WV18
Experiment: cell-based or functional assay

Sequence of GABABR1a on mouse hippocampal neurons (cultures and slices) (mouse), Q9WV18 (Q9WV18 20-960): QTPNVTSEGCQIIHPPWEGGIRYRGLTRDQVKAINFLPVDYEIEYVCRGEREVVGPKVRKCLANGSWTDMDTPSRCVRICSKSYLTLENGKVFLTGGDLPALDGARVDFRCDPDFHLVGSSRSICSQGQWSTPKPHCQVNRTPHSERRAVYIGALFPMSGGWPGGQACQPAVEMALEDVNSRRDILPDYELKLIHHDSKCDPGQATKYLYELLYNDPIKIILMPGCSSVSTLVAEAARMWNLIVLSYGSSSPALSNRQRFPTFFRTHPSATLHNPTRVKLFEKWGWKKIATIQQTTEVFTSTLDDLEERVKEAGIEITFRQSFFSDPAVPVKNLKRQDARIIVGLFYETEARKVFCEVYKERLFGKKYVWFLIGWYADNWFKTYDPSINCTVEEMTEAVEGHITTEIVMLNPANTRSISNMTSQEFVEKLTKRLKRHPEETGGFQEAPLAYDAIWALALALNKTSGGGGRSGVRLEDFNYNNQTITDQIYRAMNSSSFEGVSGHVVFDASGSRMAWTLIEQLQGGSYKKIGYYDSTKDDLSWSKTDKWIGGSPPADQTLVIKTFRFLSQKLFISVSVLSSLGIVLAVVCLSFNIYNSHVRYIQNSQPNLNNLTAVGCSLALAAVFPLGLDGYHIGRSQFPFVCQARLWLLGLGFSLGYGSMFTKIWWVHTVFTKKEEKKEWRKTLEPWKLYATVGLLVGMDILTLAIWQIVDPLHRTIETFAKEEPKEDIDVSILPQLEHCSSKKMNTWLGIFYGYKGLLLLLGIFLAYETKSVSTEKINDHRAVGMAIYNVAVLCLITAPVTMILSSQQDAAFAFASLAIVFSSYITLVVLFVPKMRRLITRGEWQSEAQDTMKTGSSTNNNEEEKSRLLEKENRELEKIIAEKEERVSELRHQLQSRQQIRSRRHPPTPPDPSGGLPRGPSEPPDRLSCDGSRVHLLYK

- reduction of the frequency of miniature excitatory postsynaptic currents (mEPSCs), 250 nM sAPPα, primary hippocampal neurons: 39%
- reduction of the frequency of miniature inhibitory postsynaptic currents (mIPSCs), 250 nM sAPPα, primary hippocampal neurons: 44%
- reduction of total presynaptic strength (S=ΔF×D), FM1-43 synaptic vesicle recycling, cultured hippocampal neurons: 57%
- reduction on mIPSC amplitude: 14%
B1: sAPPα (Fc cleaved), P12023 18-687 (ligand)
chain: LEVPTDGNAGLLAEPQIAMFCGKLNMHMNVQNGKWESDPSGTKTCIGTKEGILQYCQEVYPELQITNVVEANQPVTIQNWCKRGRKQCKTHTHIVIPYRCLVGEFVSDALLVPDKCKFLHQERMDVCETHLHWHTVAKETCSEKSTNLHDYGMLLPCGIDKFRGVEFVCCPLAEESDSVDSADAEEDDSDVWWGGADTDYADGGEDKVVEVAEEEEVADVEEEEADDDEDVEDGDEVEEEAEEPYEEATERTTSTATTTTTTTESVEEVVRVPTTAASTPDAVDKYLETPGDENEHAHFQKAKERLEAKHRERMSQVMREWEEAERQAKNLPKADKKAVIQHFQEKVESLEQEAANERQQLVETHMARVEAMLNDRRRLALENYITALQAVPPRPHHVFNMLKKYVRAEQKDRQHTLKHFEHVRMVDPKKAAQIRSQVMTHLRVIYERMNQSLSLLYNVPAVAEEIQDEVDELLQKEQNYSDDVLANMISEPRISYGNDALMPSLTETKTTVELLPVNGEFSLDDLQPWHPFGVDSVPANTENEVEPVDARPAADRGLTTRPGSGLTNIKTEEISEVKMDAEFGHDSGFEVRHQK
